Test results reported in the supplement of paper PMC9170038.

Test system: MS2 coat protein
Assay: apparent KD of MS2 coat protein; designed switch direction (-1 OFF switch, 1 ON switch): -1; higher = weaker reporter binding
Summary of the method: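 The apparent KD reported per design is the median over clusters of curve fits to normalised cluster fluorescence. The RNA switches were transcribed on Illumina chips by stalled E. coli RNA polymerase. SNAP-549-labelled MS2 coat protein was titrated from 0.7 or 1.5 nM, doubling up to 3 µM, in Tris-HCl pH 7.5 buffer containing KCl, MgCl2, BSA, DTT, tRNA and Tween-20, with no input, 200 uM small-molecule ligand, or an oligonucleotide input.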

[1] = Eterna round: R95, input ligand: FMN 200 uM
[2] = Eterna round: R95, input ligand: microRNA oligo, concentration not stated
[3] = Eterna round: R95, input ligand: none
[4] = input ligand: microRNA oligo, concentration not stated

| Sequence | apparent KD of MS2 coat protein (input ligand: FMN 200 uM) | apparent KD of MS2 coat protein (input ligand: none) | also measured |
| --- | --- | --- | --- |
| ACAAUGUUAGGAUAUCUGACAAUUAGUCUCGACUAGUCGAAAGAGAAGGAACAUGAGGAUCACCCAUGUAGAUC [EX4 #73] (Eterna round: R97, puzzle: Exclusion 4) | 144 nM | 37.4 nM |  |
| UAUUAGCAAGCCAGAUCCCACAUGAGGAUCACCCAUGUGCUCGUCUUAUAAGGUACUGUGACGAAAGUCACGGUACC [Sensor 3, v1 - 93] (puzzle: Sensor v3, turn-off variant 1) |  |  | apparent KD of MS2 coat protein [1]: 137 nM; apparent KD of MS2 coat protein [2]: 1120 nM; apparent KD of MS2 coat protein [3]: 184 nM |
| GAAAAGUGAGGAUAUGGUAAAAAAAAAAGAAAAAAAAAACUCCAGAAGGCACAUGAGGAUCACCCAUGUAAAAG [salish99_ex4_r3_003] (puzzle: Exclusion 4) |  |  | apparent KD of MS2 coat protein [1]: 41.9 nM; apparent KD of MS2 coat protein [2]: 19.5 nM; apparent KD of MS2 coat protein [3]: 58.6 nM |
| AGUAGUAGUAUCCGAUCCUACAUGAGGAUCACCCAUGUAGCUGGACGUGCACGCGAUGCUCGUCAGACUACCAGAUG [salish99_TOv1_r3_044] (puzzle: Sensor v3, turn-off variant 1) |  |  | apparent KD of MS2 coat protein [1]: 181 nM; apparent KD of MS2 coat protein [2]: 131 nM; apparent KD of MS2 coat protein [3]: 150 nM |
| UGAGUACUGCGAGGAUAUACAUGAGGAUCACCCAUGUAAUAGUGUGAGGCUUUGCCUCACACAAUGUAGAAGGCGCAGUACUCU [Mat - Exclusion NG 2 - Mod of JL - D5] (Eterna round: R96, puzzle: Exclusion NG 2) | 15.5 nM | 11.8 nM | apparent KD of MS2 coat protein [4]: 9.63 nM |
| GGUCUUCAAGUCAGGAUAUCGUCUAGUCGGUCUGGCGAGAAGGGACAUGAGGAUCACCCAUGUCGUCUCAUCAG [Ex4 #14] (Eterna round: R97, puzzle: Brourd's mod of Exclusion 4) | 30.6 nM | 19.9 nM |  |
| GGUGCGUAUGUGAGGAUAUGCUGGUCCUUGGAUCAGCAGAAGGCACAUGAGGAUCACCCAUGUGGUGUCGUGCC [salish99_Bmod_Ex4_019] (Eterna round: R96, puzzle: Brourd's mod of Exclusion 4) | 132 nM | 1050 nM | apparent KD of MS2 coat protein [4]: 741 nM |
| GUACCAGAUGUCAGGAUAUGCUUUGAGAGUUGCGAGUAGAAGGGACAUGAGGAUCACCCAUGUACCUACAGGAA [BmEX4 B.30] (Eterna round: R97, puzzle: Brourd's mod of Exclusion 4) | 14.7 nM | 14 nM |  |
| AACCUCGGAGGAUAUACCUACCGAUUCACAAGUGUCACAUCACAUGAGGAUCACCCAUGUAGAAGGUCGAGGCG [Onorzais] (puzzle: Exclusion 2) |  |  | apparent KD of MS2 coat protein [2]: 30.1 nM |
| GAGCUAUGAGGAUAUGCAUAGAUACGGAUUCGUGUAGUACUACAUGAGGAUCACCCAUGUAGAAGGCGUGGCUG [JL-ex2-2.02 mat747 mod] (puzzle: Exclusion 2) |  |  | apparent KD of MS2 coat protein [2]: 15.4 nM |
| GGUACUAACACGAUAGUGUUAGUACUAUAAGCUUGUGUUACAUGAGGAUCACCCAUGUCCUCAUAGGCUCGUCUUAU [Mat - Sensor v3 - Turn-off var 2 - D86] (puzzle: Sensor v3, turn-off variant 2) |  |  | apparent KD of MS2 coat protein [1]: 169 nM; apparent KD of MS2 coat protein [2]: 30.8 nM; apparent KD of MS2 coat protein [3]: 166 nM |
| CCACGACAUGAGGAUCACCCAUGUGAGGAUAUGGCCUGAAAAGCGUGAGCUGAAUCAAUCAGAAGGCGCGUGGG [salish99_ex1_r4_059_4A's] (Eterna round: R97, puzzle: Exclusion 1) | 109 nM | 42 nM |  |
| AUCAGCUCGUGAGGAUAUACAUCACUGCUUCGGCAGUGUAUUAAGAUCACAUGAGGAUCACCCAUGUAGAAGGUACGAGCUGAU [ENG2/2-C3] (Eterna round: R96, puzzle: Exclusion NG 2) | 215 nM | 26.1 nM | apparent KD of MS2 coat protein [4]: 20.8 nM |
| CCCAUGUUAGGAUAUAUGGAAGGGCGGACGGGCGCCCUAAGGUAGAAGGGACAUGAGGAUCACCCAUGUAAUAA [Diquar] (Eterna round: R97, puzzle: Exclusion 4) | 194 nM | 160 nM |  |
| AAACCCUGAGGAUAUACAUAACAACAAAGCCUCACAUGCCAACAUGAGGAUCACCCAUGUAGAAGGCAGGCCAA [Mod R3 Insanara 13 - Jieux - Exclusion 2] (Eterna round: R97, puzzle: Exclusion 2) | 19.2 nM | 10.1 nM |  |
| UUGUUAUAUGUAGGAUAUGCAUAUUGUUGUUAUGCAGAAGGACAUGAGGAUCACCCAUGUAUAUUAUUGUUAUAUAUUGUAUAU [Title] (Eterna round: R96, puzzle: Exclusion NG 1) |  |  | apparent KD of MS2 coat protein [4]: 20.1 nM |

| Sequence | apparent KD of MS2 coat protein (input ligand: FMN 200 uM) | apparent KD of MS2 coat protein (input ligand: none) | also measured |
| --- | --- | --- | --- |
| AUUUUAUAACAAGGAUAUACUAAACAUGAGGAUCACCCAUGUAAUAUUAUGAGUGAGAGAGAGAAGUAGAAGGUGUAUUAUUUU [JMF solution 1] (Eterna round: R96, puzzle: Exclusion NG 2) |  |  | apparent KD of MS2 coat protein [4]: 97.4 nM |
| UCCGUGUCAGGAUAUGCUAGCGCAAAGUUGCCCGCGCUGUAGCAGAAGGGACAUGAGGAUCACCCAUGUCUACA [Exclusion 4 (Mod of Nando's EX4 C.10 cleaner dot)] (Eterna round: R97, puzzle: Exclusion 4) | 70.7 nM | 20.4 nM |  |
| UAUUUAAGAGGAUAUACAUGAGGAUCACCCAUGUAUAUUAAAAUACAUGAUUUUUUAUGUAGAAGGCUUGGGUA [-21.5, -18.3 kcal, 35% A] (Eterna round: R97, puzzle: Exclusion 3) | 23.6 nM | 16.9 nM |  |
| CCGGAUUAGGAGGAUAUAGGAGUCGAUAGACACCUAGAAGGCCUGACAUGAGGAUCACCCAUGUGUCCUACCGG [Mod of Eli 17 - Jieux - Exclusion 6] (Eterna round: R97, puzzle: Exclusion 6) | 48.6 nM | 22.9 nM |  |
| AUACCACGAGGAUAUCGUCUAUUUUACAUGAGGAUCACCCAUGUUAUCUUUGUUUUGUUUCGAGAAGGCGUGUUUU [JR_E5_Sub079] (puzzle: Exclusion 5) |  |  | apparent KD of MS2 coat protein [2]: 24.6 nM |
| GUACUGACAGGAUAUACAUGAGGAUCACCCAUGUGCCCUUAAUGAUGCAAAGCAUCAAGUAGAAGGGUCUGUAC [Omei Ex3 Model Bachelor's Dilema v22] (Eterna round: R97, puzzle: Exclusion 3) | 42.5 nM | 32.8 nM |  |
| CUCAUGUGAGGAUAUAGUGCGUCUUCUAUUAUUAUUGAGUACUAGAAGGCACAUGAGGAUCACCCAUGUAGCAC [Ex4 - 3 - 45] (puzzle: Exclusion 4) |  |  | apparent KD of MS2 coat protein [2]: 41.9 nM |
| GCACGGAGUGCAGGAUAUCUGUGCGAUUAGCUCAGAGAAGGGCACAUGAGGAUCACCCAUGUGUAUAAACACAAUAAUCCGUGC [Eli exng1 - 068] (Eterna round: R96, puzzle: Exclusion NG 1) | 18.6 nM | 14 nM | apparent KD of MS2 coat protein [4]: 9.94 nM |
| GAUCAUGCAGGAUAUACAUGGAACAUUAAAUCAUGAAUUCUACAUGAGGAUCACCCAUGUAGAAGGGCAUGAUC [Omei Ex2 A17] (Eterna round: R97, puzzle: Exclusion 2) | 169 nM | 72.1 nM |  |
| UCACGGGACUGAGGAUAUACAUGAACUAUUUUUGUAGAAGGCAGAAUGUUAGAUUAUACACUAAACAUGAGGAUCACCCAUGUU [JR_ExcNG1_Sub024] (Eterna round: R96, puzzle: Exclusion NG 1) |  |  | apparent KD of MS2 coat protein [4]: 15.1 nM |
| AGUAUGUGAGGAUAUUUUUCGUCCGGUAGGAUACUACAGAGAAAGAAGGCACAUGAGGAUCACCCAUGUGAGAC [Eternabot (L1) Solution 55] (Eterna round: R97, puzzle: Exclusion 4) | 48.3 nM | 20.1 nM |  |
| GGUCGACAUGAGGAUCACCCAUGUCAGGAUAUCGUCACUGGAGCUUCGGCUCCAGUGACGAGAAGGGAUAUGAU [E1/17-A1] (Eterna round: R97, puzzle: Exclusion 1) | 39.1 nM | 34.2 nM |  |
| CGACUGUGAGGAUAUGGUGAGUAGUGCCUGAGCGCUGCUCACCAGAAGGCACAUGAGGAUCACCCAUGUAUAGC [Mat - Exclusion 4 - Mod of JL - D9] (puzzle: Exclusion 4) |  |  | apparent KD of MS2 coat protein [2]: 31.7 nM |
| AGUGUGUGGCAGGAUAUGCUAUUGAUUGGUGAAGCAGAAGGGUCUACAUGAGGAUCACCCAUGUAAGCGGUUGA [Ex6 #28] (Eterna round: R97, puzzle: Exclusion 6) | 327 nM | 46.4 nM |  |
| ACGCUGUGAGGAUAUACAUGAGGAUCACCCAUGUUAAGGAAGUCUUGGUUAAUUUGGAGUAGAAGGCGCUUAUU [JR_Ex3_Sub016] (Eterna round: R97, puzzle: Exclusion 3) | 31.5 nM | 34.9 nM |  |
| CAGUACAGAGGAUAUACAUGAGGAUCACCCAUGUGUUUCAGCAUCGAAAGAUGCGAAUGUAGAAGGCUGUACUG [jl-ex3-4.26 salish99 mod] (Eterna round: R97, puzzle: Exclusion 3) | 313 nM | 26.5 nM |  |
